Where a chain is given by its changes, count along the chain named.

The labels stand for the following.
T1: human GIP receptor (human) (UniProt P48546)
T1 sequence (looked up): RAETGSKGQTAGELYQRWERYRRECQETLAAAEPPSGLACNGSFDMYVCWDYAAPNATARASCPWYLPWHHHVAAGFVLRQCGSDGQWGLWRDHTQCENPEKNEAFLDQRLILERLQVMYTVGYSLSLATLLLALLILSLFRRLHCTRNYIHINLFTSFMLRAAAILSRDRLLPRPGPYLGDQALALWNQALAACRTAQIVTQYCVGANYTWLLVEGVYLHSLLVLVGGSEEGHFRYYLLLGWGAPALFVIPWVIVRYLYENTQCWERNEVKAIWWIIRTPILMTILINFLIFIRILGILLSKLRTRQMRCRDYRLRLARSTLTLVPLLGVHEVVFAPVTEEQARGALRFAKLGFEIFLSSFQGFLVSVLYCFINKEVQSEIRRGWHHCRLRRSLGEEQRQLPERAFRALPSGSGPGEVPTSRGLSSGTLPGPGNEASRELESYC

B1: Example 636 (peptide)
chain: YXQGTXTSDXSIXLDKKAQXXFIEYLAEGGPSSGEPPPSGSEE
modifications: non-natural residues; C18 diacid-(γ-Glu)2 acyl on Lys; C-terminal amide; synthetic construct; SITE 2: note = 2-Aminoisobutyric Acid; SITE 6: note = alpha-methyl-2-fluoro-L-phenylalanine; SITE 10: note = 3-(4-Pyridyl)-L-alanine; SITE 13: note = alpha-methyl-leucine; SITE 17: note = Lysine is chemically modified through conjugation of the epsilon-amino group of the Lysine
B2: Example 634 (peptide)
chain: B1 chain with X21A, A27Q
modifications: (γGlu)2-C18 diacid on Lys; non-natural residues; amide; synthetic construct; SITE 2: note = 2-Aminoisobutyric Acid; SITE 6: note = alpha-methyl-2-fluoro-L-phenylalanine; SITE 10: note = 3-(4-Pyridyl)-L-alanine; SITE 13: note = alpha-methyl-leucine; SITE 17: note = Lysine is chemically modified through conjugation of the epsilon-amino group of the Lysine
B3: Example 638 (peptide)
chain: B1 chain with A27T
modifications: Aib, αMeF(2F), 4Pal, αMeL, Orn; γGlu2-C18 diacid Lys; amide; synthetic construct; SITE 2: note = 2-Aminoisobutyric Acid; SITE 6: note = alpha-methyl-2-fluoro-L-phenylalanine; SITE 10: note = 3-(4-Pyridyl)-L-alanine; SITE 13: note = alpha-methyl-leucine; SITE 17: note = Lysine is chemically modified through conjugation of the epsilon-amino group of the Lysine
B4: Example 623 (peptide)
chain: B1 chain with X21A, A27E, E35A, S41E, E42G
modifications: C-terminal amide; lysine acylated with (γ-Glu)2-C18 diacid; synthetic construct; SITE 2: note = 2-Aminoisobutyric Acid; SITE 6: note = alpha-methyl-2-fluoro-L-phenylalanine; SITE 10: note = 3-(4-Pyridyl)-L-alanine; SITE 13: note = alpha-methyl-leucine; SITE 17: note = Lysine is chemically modified through conjugation of the epsilon-amino group of the Lysine
B5: Example 622 (peptide)
chain: B1 chain with X21A, A27E, E35A, S41T, E42G
modifications: non-natural residues; (γGlu)2-C18 diacid acyl; C-terminal amide; synthetic construct; SITE 2: note = 2-Aminoisobutyric Acid; SITE 6: note = alpha-methyl-2-fluoro-L-phenylalanine; SITE 10: note = 3-(4-Pyridyl)-L-alanine; SITE 13: note = alpha-methyl-leucine; SITE 17: note = Lysine is chemically modified through conjugation of the epsilon-amino group of the Lysine
B6: Example 625 (peptide)
chain: B1 chain with X21A, A27E, S41E, E42G
modifications: non-natural residues; lipidated Lys; C-terminal amide; synthetic construct; SITE 2: note = 2-Aminoisobutyric Acid; SITE 6: note = alpha-methyl-2-fluoro-L-phenylalanine; SITE 10: note = 3-(4-Pyridyl)-L-alanine; SITE 13: note = alpha-methyl-leucine; SITE 17: note = Lysine is chemically modified through conjugation of the epsilon-amino group of the Lysine
B7: Example 630 (peptide)
chain: B1 chain with X21A, A27E
modifications: non-natural residues; lipidated Lys; C-terminal amide; synthetic construct; SITE 2: note = 2-Aminoisobutyric Acid; SITE 6: note = alpha-methyl-2-fluoro-L-phenylalanine; SITE 10: note = 3-(4-Pyridyl)-L-alanine; SITE 13: note = alpha-methyl-leucine; SITE 17: note = Lysine is chemically modified through conjugation of the epsilon-amino group of the Lysine
B8: Example 621 (peptide)
chain: YXQGTXTSDXSILLDKKAQXAFIEYLEEGGPSSGAPPPSGEGE
modifications: non-natural residues, lysine acylation, C-terminal amide; synthetic construct; SITE 2: note = 2-Aminoisobutyric Acid; SITE 6: note = alpha-methyl-2-fluoro-L-phenylalanine; SITE 10: note = 3-(4-Pyridyl)-L-alanine; SITE 17: note = Lysine is chemically modified through conjugation of the epsilon-amino group of the Lysine side chain with (gamma-Glu)2-CO-(CH2)1
B9: Example 624 (peptide)
chain: B8 chain with L13X, A35E, E41T
modifications: non-natural residues; lipidated Lys; C-terminal amide; synthetic construct; SITE 2: note = 2-Aminoisobutyric Acid; SITE 6: note = alpha-methyl-2-fluoro-L-phenylalanine; SITE 10: note = 3-(4-Pyridyl)-L-alanine; SITE 13: note = alpha-methyl-leucine; SITE 17: note = Lysine is chemically modified through conjugation of the epsilon-amino group of the Lysine
B10: Example 626 (peptide)
chain: B8 chain with L13X, S39E, E41T
modifications: non-natural residues, (γGlu)2-diacid acylated Lys, C-terminal amide; synthetic construct; SITE 2: note = 2-Aminoisobutyric Acid; SITE 6: note = alpha-methyl-2-fluoro-L-phenylalanine; SITE 10: note = 3-(4-Pyridyl)-L-alanine; SITE 13: note = alpha-methyl-leucine; SITE 17: note = Lysine is chemically modified through conjugation of the epsilon-amino group of the Lysine
B11: Example 637 (peptide)
chain: B1 chain with A27S
modifications: Aib, αMeF(2F), 4Pal, Orn; acylated lysine; amide; synthetic construct; SITE 2: note = 2-Aminoisobutyric Acid; SITE 6: note = alpha-methyl-2-fluoro-L-phenylalanine; SITE 10: note = 3-(4-Pyridyl)-L-alanine; SITE 13: note = alpha-methyl-leucine; SITE 17: note = Lysine is chemically modified through conjugation of the epsilon-amino group of the Lysine

Chain of hGLP-1R (P43220 24-463): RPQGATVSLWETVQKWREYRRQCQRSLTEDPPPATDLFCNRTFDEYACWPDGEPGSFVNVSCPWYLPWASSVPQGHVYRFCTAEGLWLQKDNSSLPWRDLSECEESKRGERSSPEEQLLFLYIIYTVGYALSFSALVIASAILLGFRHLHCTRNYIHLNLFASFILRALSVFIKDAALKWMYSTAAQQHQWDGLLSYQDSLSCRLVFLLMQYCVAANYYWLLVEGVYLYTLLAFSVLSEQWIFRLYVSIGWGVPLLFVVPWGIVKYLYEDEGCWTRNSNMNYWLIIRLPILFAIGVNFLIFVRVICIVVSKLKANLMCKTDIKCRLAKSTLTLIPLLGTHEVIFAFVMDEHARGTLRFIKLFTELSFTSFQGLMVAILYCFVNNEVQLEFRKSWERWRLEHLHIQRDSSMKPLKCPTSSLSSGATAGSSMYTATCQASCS

The target of the first experiment is human glucagon receptor (human) (UniProt P47871). As to the kind of experiment: cell-based or functional assay.
Chain of human glucagon receptor (human) (P47871 26-477): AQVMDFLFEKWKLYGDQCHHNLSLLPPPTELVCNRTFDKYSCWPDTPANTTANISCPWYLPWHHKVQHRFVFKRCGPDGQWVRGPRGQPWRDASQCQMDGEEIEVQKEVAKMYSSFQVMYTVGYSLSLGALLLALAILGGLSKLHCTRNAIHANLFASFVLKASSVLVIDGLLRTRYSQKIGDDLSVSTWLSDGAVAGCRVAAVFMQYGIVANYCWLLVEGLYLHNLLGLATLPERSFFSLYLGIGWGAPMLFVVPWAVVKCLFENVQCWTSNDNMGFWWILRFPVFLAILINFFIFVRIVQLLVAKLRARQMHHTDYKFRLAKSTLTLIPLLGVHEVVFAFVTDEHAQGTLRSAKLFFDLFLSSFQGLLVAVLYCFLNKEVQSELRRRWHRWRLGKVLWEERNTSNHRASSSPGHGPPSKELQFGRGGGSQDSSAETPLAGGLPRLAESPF
In the case of B1, the Relative cAMP EC50 came to 9.28 nM and the cAMP Rel EC50 (in the presence of 1% HSA) came out at 935 nM.

For B2, the Relative cAMP EC50 came to 6.49 nM and the cAMP Rel EC50 (in the presence of 1% HSA) was determined as 979 nM.

As for B3, the Relative cAMP EC50 was found to be 14 nM and the cAMP Rel EC50 (in the presence of 1% HSA) is 1090 nM.

As to B4, the Relative cAMP EC50 amounted to 7.94 nM and the cAMP Rel EC50 (in the presence of 1% HSA) came to 832 nM.

B5: the Relative cAMP EC50 came out at 7.7 nM and the cAMP Rel EC50 (in the presence of 1% HSA) was found to be 641 nM.

For B6, the Relative cAMP EC50 was determined as 8.53 nM and the cAMP Rel EC50 (in the presence of 1% HSA) was 657 nM.

In the case of B7, the Relative cAMP EC50 was 8.07 nM and the cAMP Rel EC50 (in the presence of 1% HSA) is 872 nM.

With B8, the Relative cAMP EC50 worked out at 6.81 nM and the cAMP Rel EC50 (in the presence of 1% HSA) was determined as 901 nM.

Consider B9, for which the Relative cAMP EC50 came to 8.42 nM and the cAMP Rel EC50 (in the presence of 1% HSA) turned out to be 808 nM.

Turning to B10, the Relative cAMP EC50 was determined as 8.72 nM and the cAMP Rel EC50 (in the presence of 1% HSA) came to 546 nM.

As for B11, the Relative cAMP EC50 came out at 11.7 nM and the cAMP Rel EC50 (in the presence of 1% HSA) amounted to 968 nM.

For a further experiment, the target named is T1, human GIP receptor (human). As to the kind of experiment: cell-based or functional assay.
On to B1, for which the Relative cAMP EC50 was determined as 0.054 nM and the cAMP Rel EC50 (in the presence of 1% HSA) turned out to be 4.3 nM.

As for B2, the Relative cAMP EC50 was determined as 0.0195 nM and the cAMP Rel EC50 (in the presence of 1% HSA) turned out to be 1.48 nM.

B3: the Relative cAMP EC50 is 0.0354 nM and the cAMP Rel EC50 (in the presence of 1% HSA) was found to be 2.39 nM.

B4: the Relative cAMP EC50 came out at 0.0224 nM and the cAMP Rel EC50 (in the presence of 1% HSA) came out at 1.48 nM.

Regarding B5, the Relative cAMP EC50 worked out at 0.0148 nM and the cAMP Rel EC50 (in the presence of 1% HSA) worked out at 1.19 nM.

With B6, the Relative cAMP EC50 is 0.0291 nM and the cAMP Rel EC50 (in the presence of 1% HSA) worked out at 1.81 nM.

B7: the Relative cAMP EC50 came to 0.0233 nM and the cAMP Rel EC50 (in the presence of 1% HSA) came to 2.96 nM.

As to B8, the Relative cAMP EC50 was 0.0661 nM and the cAMP Rel EC50 (in the presence of 1% HSA) was 7.31 nM.

For the molecule B9, the Relative cAMP EC50 came out at 0.0222 nM and the cAMP Rel EC50 (in the presence of 1% HSA) turned out to be 1.17 nM.

Turning to B10, the Relative cAMP EC50 was found to be 0.0192 nM and the cAMP Rel EC50 (in the presence of 1% HSA) came out at 1.75 nM.

For B11, the Relative cAMP EC50 came out at 0.108 nM and the cAMP Rel EC50 (in the presence of 1% HSA) amounted to 7.23 nM.

A further experiment has as its target hGLP-1R (Homo sapiens, UniProt P43220). Description: cell-based or functional assay.
Regarding B1, the Relative cAMP EC50 is 0.504 nM and the cAMP Rel EC50 (in the presence of 1% HSA) turned out to be 36.6 nM.

For B2, the Relative cAMP EC50 stood at 0.403 nM and the cAMP Rel EC50 (in the presence of 1% HSA) was 34.9 nM.

In the case of B3, the Relative cAMP EC50 stood at 0.4 nM and the cAMP Rel EC50 (in the presence of 1% HSA) is 36 nM.

As for B4, the Relative cAMP EC50 amounted to 0.907 nM and the cAMP Rel EC50 (in the presence of 1% HSA) was 62.2 nM.

Consider B5, for which the Relative cAMP EC50 worked out at 0.776 nM and the cAMP Rel EC50 (in the presence of 1% HSA) turned out to be 52.3 nM.

In the case of B6, the Relative cAMP EC50 was 1.16 nM and the cAMP Rel EC50 (in the presence of 1% HSA) amounted to 72.1 nM.

B7: the Relative cAMP EC50 worked out at 0.762 nM and the cAMP Rel EC50 (in the presence of 1% HSA) turned out to be 74.5 nM.

With B8, the Relative cAMP EC50 stood at 1.28 nM and the cAMP Rel EC50 (in the presence of 1% HSA) came out at 111 nM.

B9: the Relative cAMP EC50 worked out at 0.95 nM and the cAMP Rel EC50 (in the presence of 1% HSA) came to 63.4 nM.

In the case of B10, the Relative cAMP EC50 was found to be 0.889 nM and the cAMP Rel EC50 (in the presence of 1% HSA) was found to be 60.8 nM.

B11: the Relative cAMP EC50 amounted to 1.08 nM and the cAMP Rel EC50 (in the presence of 1% HSA) came out at 76.2 nM.

The values above are taken from US20240270821A1, “GIP/GLP1/GCG TRI-RECEPTOR AGONISTS AND USES THEREOF” (priority 2023, published 2024).
